The target of assay [1] is T1, FLAG-Erf2p (yeast (S. cerevisiae), UniProt Q06551 1-359).
T1 construct: Expressed in yeast RJY543 (pESC) or in E. coli XL1 Blue (pFLAG-MAC operon fusion); also called FLAG-tagged Erf2p; yeast Erf2
T1 sequence: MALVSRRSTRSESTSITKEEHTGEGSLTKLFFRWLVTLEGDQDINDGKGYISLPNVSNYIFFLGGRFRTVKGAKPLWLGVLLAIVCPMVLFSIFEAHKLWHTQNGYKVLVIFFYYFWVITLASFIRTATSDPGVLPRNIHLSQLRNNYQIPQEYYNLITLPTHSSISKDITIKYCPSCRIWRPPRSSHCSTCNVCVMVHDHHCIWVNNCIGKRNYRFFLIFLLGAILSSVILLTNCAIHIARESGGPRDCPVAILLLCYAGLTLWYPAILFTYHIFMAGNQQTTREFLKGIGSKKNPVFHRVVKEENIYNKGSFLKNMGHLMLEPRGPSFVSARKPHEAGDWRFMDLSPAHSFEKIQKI
Put plainly: co-purification on GSH-agarose from yeast extracts, anti-FLAG immunoblot. As for the experimental part:
(§1) Expression of FLAG-Erf2p was determined by affinity purification on anti-FLAG antibody linked to agarose beads followed by an anti-FLAG immunoblot (bottom panel). (FIG. 6C) The Ras PAT activity of partially purified extracts of ERF2 and ERF4 wild type and mutant strains was assayed as described in Example 1.
(§2) Purification of Erf2p/Erf4p Complex—RJY543 yeast cells expressing GST-Erf4p along with FLAG-Erf2p or FLAG-Erf2p mutants (Erf2(H201A)_p, Erf2(C189S)p, Erf2(C203S) p) were solubilized in Y-PER® reagent as described above. *E. coli* cells expressing GST-Erf4p along with FLAG-Erf2p or FLAG-Erf2p mutants (Erf2(H201A)p, Erf2(C203S)p) were lysed by high pressure (25,000 p.s.i.) homogenization (Avestin) in 50 mM Tris-HCl, pH 7.4, 150 mM NaCl, 1 mM DTT, 1 mM EDTA, and 0.13 mM phenylmethylsulfonyl fluoride (Buffer A). […]
(§3) Immunoblotting—Proteins bound to the GSH-agarose beads were analyzed for the presence of both GST and FLAG peptide fusion proteins. GST fusion proteins were detected by immunoblotting with rabbit anti-GST (Molecular Probes) antibody and peroxidase-conjugated goat anti-rabbit secondary antibody (Sigma). FLAG-tagged proteins were detected on Western blots by probing with anti-FLAG® M5 monoclonal antibody (Sigma) and peroxidase-conjugated sheep anti-mouse secondary antibody (Amersham Biosciences).
A general note: Immunoblotting shows a protein as a band on a membrane.

In assay [2] the target is T2, FLAG-Erf2(C189S)p (yeast (S. cerevisiae), UniProt Q06551 1-359).
T2 construct: Loss-of-function mutant in the DHHC domain, expressed in yeast
T2 sequence: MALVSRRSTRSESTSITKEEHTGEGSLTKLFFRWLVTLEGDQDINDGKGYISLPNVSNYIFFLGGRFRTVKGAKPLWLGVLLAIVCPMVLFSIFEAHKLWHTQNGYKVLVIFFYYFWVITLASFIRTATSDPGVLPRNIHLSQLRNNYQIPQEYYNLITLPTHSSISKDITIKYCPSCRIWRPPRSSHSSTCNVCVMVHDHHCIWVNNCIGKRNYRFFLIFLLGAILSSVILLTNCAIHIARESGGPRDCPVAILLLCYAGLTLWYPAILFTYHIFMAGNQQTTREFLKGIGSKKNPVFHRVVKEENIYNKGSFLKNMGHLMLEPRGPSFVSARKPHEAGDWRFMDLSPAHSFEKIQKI
Put plainly: co-purification on GSH-agarose from yeast extracts, immunoblot (FIG. 6B). As for the experimental part:
as §1, §2, §3

B1: GST-Erf4p (other)
chain: MCDSHQKEEDNANTSERALFFNYHEFSYSFYEDLGSEDAKPTEHDEDHKLCITHFPNVYAARGSAEFQVTRVVRVPRRFDESRSSLETPQFSTQLPGSEPAAIVGDDGTSFVRCGRYDIGDHVFGCSSVSPLSEYLSAAELAEVVHRVNGFLLREEGEVFGWRNLSGLLLDMLTGGLWSWVLGPLLSRPVFQESLALEQYVAQLNSPGGLLHERGVRLVLPRRSGCLSLDFVVPRPK
notes: also called yeast Erf4; YOL110W; not shown: glutathione S-transferase (GST) moiety fused in frame to the N-terminus; vector pEG(KG) in yeast, pFLAG-MAC operon fusio
On to B1, for which the binding result in assay [1] is given as “binds”; in assay [2], “no binding”.

The record behind these values is patent US7488592 (WASHINGTON UNIVERSITY, dated 2009).
